The source of these data is US6034212, “SH3 kinase domain associated protein, a signalling domain therein, nucleic acids encoding the protein and the domain, and diagnostic and therapeutic uses thereof” (The Rockefeller University, dated 2000).

For assay [1], the target named is T1, GST-SH3-Yes fusion protein (Gallus gallus (Chicken), UniProt P09324, 35S-methionine labeled when used as probe). Put plainly: membrane binding assay, radioactively labeled TrpE-YAP65 on blotted GST fusions. On the procedure:
(§1) FIG. 5. Binding between YAP65 and Yes in vitro. (A) TrpE-YAP65 fusion protein (2,4,5,6,7) or TrpE alone (1,3) were probed on Western blots with ^35S-methionine labeled GST-Yes-SH3 alone (2) or with radioactive GST-Yes-SH3 supplemented with 10 µM of cold GST-Yes-SH3 (4); Lane 5 is as in lane 2 but the incubation was in the presence of SPLAP peptide (200 µM); lanes 6 and 7, the binding was competed with 50 µM and 200 µM of the PLAP peptide, respectively. The arrow indicates partially purified TrpE-YAP65 fusion protein. Lower migrating protein bands represent products of proteolytic degradation. Even if an increased concentration of protease inhibitors and careful purification protocols were used, we always observed limited degradation of the TrpE-YAP65 protein. Equal amounts (8 µg) of TrpE-fusion protein or TrpE protein were loaded into each lane of the SDS-polyacrylamide gel and transferred to nitrocellulose. […]
To perform reciprocal binding and to estimate the relative specificity of YAP65 binding to other proteins that contain SH3 domains, we probed the purified GST fusion proteins of Nck, Crk, Src, Abl and GAP with radioactively labeled Trp-E-YAP65 protein. The same amount of protein was analyzed in a membrane binding assay; TRPE-YAP-65 bound the strongest to Nck and Yes followed by Crk, and Src. […]

The target of a further assay is GST alone (Schistosoma japonicum (Blood fluke), UniProt P08515 = GST, 32P-labelled when used as probe in Example 5). Put plainly: Western ligand blot on TrpE-YAP65.
Assay [2] deals with T1, GST-SH3-Yes fusion protein. In words: competition of labeled GST-YES-SH3 binding to blotted TrpE-YAP65 by the scrambled peptide. On the procedure: as §1, with “nitrocellulose. (B) Differential binding of ^35S-labeled TrpE-YAP65 fusion protein to various fusion proteins containing SH3 domains. Before the Western transfer, we had loaded equal amounts (1 µg) of purified proteins into each lane of the SDS gel. An SDS-polyacrylamide gel was run in parallel and stained with Coomassie Blue to confirm equal concentrations of the purified proteins.” for “nitrocellulose.”

B1: TrpE-YAP65 fusion protein (other)
chain: MQTQKPTLELLTCEGAYRDNPTALFHQLCGDRPATLLLESADIDSKDDLKSLLLVDSALRITALGDTVTIQALSGNGEALLALLDNALPAGVESEQSPNCRVLRFPPVSPLLDEDARLCSLSVFDAFRLLQNLLNVPKEEREAMFFGGLFSYDLVAGFEDLPQLSAENNCPDFCFYLAETLMVIDHQKKSTRIQASLFAPNEEEKQRLTARLNELRQQLTEAAPPLPVVSVPHMRCECNQSDEEFGGVVRLLQKAIRAGEIFQVVPSRRFSLPCPSPLAAYYVLKKSNPSPYMFFMQDNDFTLFGASPESSLKYDATSRQIEIPASLQLGAVSPGTLTPSGVVTGPGAPSSQHLRQSSFEIPDDVPLPPGWEMAKTPSGQRYFLNHIDQTTTWQDPRKAMLSQMNVTAPTSPPVQQNLMNSASAMNQRISQSAPVKQPPPLAPQSPQGGVMGGSSSNQQQQMRLQQLQMEKERLRLKHQELLRQELALRSQLPTMEQDGGSQNPVSSPGMSQELRTMTTNSSDPFLNSGTYHSRDESTDSGLSMSSYSVPRTPDDFLNSVDEMDTGDSISQSNIPSHQNRFPDYLEAIPGTNVDLGTLEGDGMNIEGEELMPSLQEALSSDILNDMES
modifications: 35S-labeled when used as probe
Turning to B1, the binding result in assay [1] is reported as “binds”; in the assay with GST alone, “no binding”.
VQPAQLSIPGPVSPQPKGQSPA [SPLAP peptide]: the binding result in assay [2] is listed as “no binding (tested: 200 µM)”.
